Laboratory results reported in the supplement of paper PMC10567573.

B1: FCHO1 (parent)
chain: FSDPSQSDPETKDFWLNMAALTEA

Variants of: B1
Test: protein stability index of a GFP-peptide fusion (GPS, HEK-293T) (PSI 1-6); higher = more stable
Details: c terminus: a fixed tail appended
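Further: lentivirally expressed fusions sorted by FACS into six bins by GFP to DsRed ratio, PSI derived from sequencing read proportions per bin multiplied by bin number.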

Compared with FSDPSQSDPESKDFWLNMAALTEA, FSDPSQSDPELKDFWLNMAALTEA is lower in protein stability index: 2.98 for the first, 2.13 for the second.

First: FSDPSQSDPEPKDFWLNMAALTEA
Second: FSDPSQSDPEDKDFWLNMAALTEA
The protein stability index of the first is lower: 3.38 for the first, 4.34 for the second.

Compared with FSDPSQSDPEEKDFWLNMAALTEA, FSDPSQSDPECKDFWLNMAALTEA is lower in protein stability index: 4.2 for the first, 2.92 for the second.

Compared with FSDPSQSDPEGKDFWLNMAALTEA, FSDPSQSDPEMKDFWLNMAALTEA is lower in protein stability index: 3.04 for the first, 2.31 for the second.

FSDPSQSDPEVKDFWLNMAALTEA and FSDPSQSDPERKDFWLNMAALTEA are the same in protein stability index: 2.69 for the first, 2.69 for the second.

Compared with FSDPSQSDPEKKDFWLNMAALTEA, FSDPSQSDPENKDFWLNMAALTEA is higher in protein stability index: 2.49 for the first, 3.12 for the second.

Compared with FSDPSQSDPEFKDFWLNMAALTEA, FSDPSQSDPEQKDFWLNMAALTEA is higher in protein stability index: 2.09 for the first, 3.15 for the second.

Going from FSDPSQSDPEWKDFWLNMAALTEA to FSDPSQSDPEIKDFWLNMAALTEA, the protein stability index rises from 1.74 to 2.7.

Compared with FSDPSQSDPEAKDFWLNMAALTEA, FSDPSQSDPEYKDFWLNMAALTEA is lower in protein stability index: 3.11 for the first, 2.06 for the second.

Compared with FSDPSQSDPEHKDFWLNMAALTEA, FSDPSQSDPETKCFWLNMAALTEA is lower in protein stability index: 2.87 for the first, 1.77 for the second.

Compared with FSDPSQSDPETKQFWLNMAALTEA, FSDPSQSDPETKYFWLNMAALTEA is higher in protein stability index: 2.08 for the first, 2.25 for the second.

Compared with FSDPSQSDPETKIFWLNMAALTEA, FSDPSQSDPETKEFWLNMAALTEA is higher in protein stability index: 1.75 for the first, 3.62 for the second.

First: FSDPSQSDPETKAFWLNMAALTEA
Second: FSDPSQSDPETKKFWLNMAALTEA
The protein stability index of the first is lower: 2.09 for the first, 2.33 for the second.

Compared with FSDPSQSDPETKFFWLNMAALTEA, FSDPSQSDPETKMFWLNMAALTEA is lower in protein stability index: 1.88 for the first, 1.43 for the second.

First: FSDPSQSDPETKWFWLNMAALTEA
Second: FSDPSQSDPETKGFWLNMAALTEA
The protein stability index of the first is lower: 1.65 for the first, 2.96 for the second.

First: FSDPSQSDPETKRFWLNMAALTEA
Second: FSDPSQSDPETKHFWLNMAALTEA
The protein stability index of the first is lower: 1.97 for the first, 2.02 for the second.

Going from FSDPSQSDPETKLFWLNMAALTEA to FSDPSQSDPETKVFWLNMAALTEA, the protein stability index falls from 1.82 to 1.65.

Going from FSDPSQSDPETKPFWLNMAALTEA to FSDPSQSDPETKNFWLNMAALTEA, the protein stability index falls from 2.37 to 1.27.

Going from FSDPSQSDPETKSFWLNMAALTEA to FSDPSQSDPETKTFWLNMAALTEA, the protein stability index rises from 1.47 to 2.37.

Compared with FSDPSQSDPETKDFFLNMAALTEA, FSDPSQSDPETKDFYLNMAALTEA is higher in protein stability index: 4.3 for the first, 4.38 for the second.

Going from FSDPSQSDPETKDFMLNMAALTEA to FSDPSQSDPETKDFGLNMAALTEA, the protein stability index rises from 4.48 to 4.65.

First: FSDPSQSDPETKDFKLNMAALTEA
Second: FSDPSQSDPETKDFCLNMAALTEA
The protein stability index of the first is higher: 4.85 for the first, 4.62 for the second.

Going from FSDPSQSDPETKDFQLNMAALTEA to FSDPSQSDPETKDFVLNMAALTEA, the protein stability index rises from 4.45 to 4.77.

Compared with FSDPSQSDPETKDFILNMAALTEA, FSDPSQSDPETKDFNLNMAALTEA is higher in protein stability index: 4.43 for the first, 4.79 for the second.

Going from FSDPSQSDPETKDFELNMAALTEA to FSDPSQSDPETKDFHLNMAALTEA, the protein stability index rises from 4.68 to 4.73.

First: FSDPSQSDPETKDFLLNMAALTEA
Second: FSDPSQSDPETKDFSLNMAALTEA
The protein stability index of the first is lower: 4.59 for the first, 4.82 for the second.

First: FSDPSQSDPETKDFRLNMAALTEA
Second: FSDPSQSDPETKDFDLNMAALTEA
The protein stability index of the first is lower: 4.68 for the first, 5.32 for the second.

Compared with FSDPSQSDPETKDFPLNMAALTEA, FSDPSQSDPETKDFTLNMAALTEA is lower in protein stability index: 4.66 for the first, 4.38 for the second.

Compared with FSDPSQSDPETKDFALNMAALTEA, FSDPSQSDPETKDCWLNMAALTEA is lower in protein stability index: 4.88 for the first, 4.11 for the second.

First: FSDPSQSDPETKDRWLNMAALTEA
Second: FSDPSQSDPETKDDWLNMAALTEA
The protein stability index of the first is lower: 4.62 for the first, 4.88 for the second.

Compared with FSDPSQSDPETKDHWLNMAALTEA, FSDPSQSDPETKDYWLNMAALTEA is lower in protein stability index: 4.51 for the first, 3.98 for the second.

First: FSDPSQSDPETKDTWLNMAALTEA
Second: FSDPSQSDPETKDKWLNMAALTEA
The protein stability index of the first is lower: 4.57 for the first, 4.72 for the second.

First: FSDPSQSDPETKDIWLNMAALTEA
Second: FSDPSQSDPETKDPWLNMAALTEA
The protein stability index of the first is lower: 3.61 for the first, 4.58 for the second.

Compared with FSDPSQSDPETKDLWLNMAALTEA, FSDPSQSDPETKDMWLNMAALTEA is higher in protein stability index: 3.69 for the first, 4.12 for the second.

Going from FSDPSQSDPETKDQWLNMAALTEA to FSDPSQSDPETKDVWLNMAALTEA, the protein stability index falls from 4.75 to 4.01.

First: FSDPSQSDPETKDWWLNMAALTEA
Second: FSDPSQSDPETKDNWLNMAALTEA
The protein stability index of the first is lower: 3.87 for the first, 4.76 for the second.

Compared with FSDPSQSDPETKDEWLNMAALTEA, FSDPSQSDPETKDGWLNMAALTEA is lower in protein stability index: 4.99 for the first, 4.83 for the second.

Going from FSDPSQSDPETKDAWLNMAALTEA to FSDPSQSDPETKDSWLNMAALTEA, the protein stability index rises from 4.17 to 4.78.

Compared with FSDPSQQDPETKDFWLNMAALTEA, FSDPSQTDPETKDFWLNMAALTEA is lower in protein stability index: 3.18 for the first, 2.74 for the second.

First: FSDPSQVDPETKDFWLNMAALTEA
Second: FSDPSQRDPETKDFWLNMAALTEA
The protein stability index of the first is higher: 3.29 for the first, 2.64 for the second.

Compared with FSDPSQWDPETKDFWLNMAALTEA, FSDPSQPDPETKDFWLNMAALTEA is higher in protein stability index: 2 for the first, 3.92 for the second.

First: FSDPSQYDPETKDFWLNMAALTEA
Second: FSDPSQSDIETKDFWLNMAALTEA
The protein stability index of the first is lower: 2.69 for the first, 2.82 for the second.

Going from FSDPSQSDQETKDFWLNMAALTEA to FSDPSQSDAETKDFWLNMAALTEA, the protein stability index falls from 3.27 to 3.12.

Compared with FSDPSQSDGETKDFWLNMAALTEA, FSDPSQSDCETKDFWLNMAALTEA is lower in protein stability index: 2.77 for the first, 2.68 for the second.

First: FSDPSQSDFETKDFWLNMAALTEA
Second: FSDPSQSDHETKDFWLNMAALTEA
The protein stability index of the first is higher: 2.76 for the first, 2.73 for the second.

Compared with FSDPSQSDDETKDFWLNMAALTEA, FSDPSQSDKETKDFWLNMAALTEA is lower in protein stability index: 3.7 for the first, 3.05 for the second.

Going from FSDPSQSDRETKDFWLNMAALTEA to FSDPSQSDVETKDFWLNMAALTEA, the protein stability index rises from 2.8 to 3.54.
